Experimental data as given in patent US20080274480A1.

Molecular target: BoNT/A receptor on mouse brain synaptosomes (mouse)

Question: What does the source list for “inactive BoNT/A toxin (formaldehyde-inactivated BoNT/A, Metabiologics, Inc.), unlabeled (from UniProt P0DPI1 2-1296)”?
Answer: IC50: 0.013 µM; percent inhibition: 100%; percent inhibition at 2.0 µg: 98%
